Assay results from US20260242478A1 (published 2026).
Where no end group is shown, it is not given here.

Legend:
[1] = target: T1, Anti-PSMA Fab (SEQ ID NOs: 19, 20); test: phage binding ELISA on captured PSMA Fab; wells pre-incubated with PSMA antigen as competitor
T1 construct: Biotinylated and captured on neutravidin coated plates in the phage ELISA; also called 006 PSMA Fab
Procedure: (§1) Clonal phage were harvested as crude supernatants and screened via standard ELISAs. […] Prior to the addition of clonal phage. wells were incubated with blocking buffer and PSMA antigen or blocking buffer alone. Without washing or aspirating, clonal phage supernatants were then added to the wells and incubated for a short time. Wells were then washed followed by detection of bound phage using a horse radish conjugated anti-M13 antibody.

[2] = target: T1, Anti-PSMA Fab (SEQ ID NOs: 19, 20); test: phage binding ELISA; biotinylated PSMA Fab captured on neutravidin plate, clonal phage supernatant, anti-M13 HRP detection
Procedure: as §1

[3] = target: T2, Anti-PSMA Fab (SEQ ID NOs: 19, 20); test: phage ELISA; biotinylated PSMA Fab on neutravidin plate pre-incubated with PSMA antigen (competitor), anti-M13 HRP detection
T2 construct: In the phage ELISA the Fab was biotinylated and captured on neutravidin coated plates; also called 006 PSMA Fab
Procedure: as §1

[4] = target: T2, Anti-PSMA Fab (SEQ ID NOs: 19, 20); test: phage ELISA; biotinylated PSMA Fab on neutravidin plate, clonal phage supernatant, anti-M13 HRP detection;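 further: wells preincubated with PSMA antigen in blocking buffer or with blocking buffer only before clonal phage were added for a short incubation, then bound phage detected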
Procedure: as §1

[5] = target: T3, Anti-PSMA Fab (SEQ ID NOs: 19, 20); test: phage binding ELISA; biotinylated PSMA Fab on neutravidin plate, clonal phage, anti-M13-HRP detection
T3 construct: Biotinylated PSMA Fab captured on neutravidin coated plates in the phage ELISA; also called 006 PSMA Fab
Procedure: as §1

[6] = target: T3, Anti-PSMA Fab (SEQ ID NOs: 19, 20); test: phage binding ELISA; Fab-coated wells pre-incubated with PSMA antigen as competitor, anti-M13-HRP detection;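 further: clonal phage supernatants screened, with reference wells given blocking buffer only (no PSMA antigen) before phage were added for a brief incubation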
Procedure: as §1

[7] = target: T4, Anti-PSMA Fab (SEQ ID NOs: 19, 20); test: phage binding ELISA; biotinylated PSMA Fab on neutravidin plate, clonal phage supernatant, anti-M13 HRP detection;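 further: wells were preincubated with blocking buffer either containing PSMA antigen or without it before crude phage supernatant was added, briefly incubated, then washed prior to detection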
T4 construct: Biotinylated and captured on neutravidin coated plates in the phage ELISA; also called 006 PSMA Fab
Procedure: as §1

[8] = target: T4, Anti-PSMA Fab (SEQ ID NOs: 19, 20); test: phage binding ELISA; PSMA Fab on plate pre-incubated with PSMA antigen as competitor, anti-M13 HRP detection;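 further: crude clonal phage supernatants added without washing to wells preincubated with PSMA in blocking buffer, compared with wells receiving blocking buffer only, then bound phage detected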
Procedure: as §1

| Binder | Anti-PSMA Fab signal in the presence of PSMA [1] | Anti-PSMA Fab (SEQ ID NOs: 19, 20) signal [2] | Phage binding ELISA, Anti-PSMA Fab signal in the presence of PSMA [3] | Phage binding ELISA, Anti-PSMA Fab signal [4] | further results |
| --- | --- | --- | --- | --- | --- |
| LVKWCIPEWMCEVL (tested as crude clonal phage supernatant) [Phage-1974] | 0.0751 | 1.9 |  |  |  |
| IDKWCIPAWMCVSN (cysteine pairing not given here; also: displayed as fusion to phage pIII, Peptide-180 library clone) [Phage-1998] |  |  | 0.0815 | 1.86 |  |
| IDNWCRPLWMCHGF (cysteine pairing not given here; also: displayed as fusion to phage pIII, Peptide-180 library clone) [Phage-2004] |  |  | 0.0907 | 1.85 |  |
| EFVKCVPAWMCEWT (cysteine pairing not given here; also: fused to phage pIII, pIII sequence and linker not given here, Peptide-180 library clone) [Phage-2009] |  |  | 0.0768 | 1.84 |  |
| MAQWCTPAWMCSGF (tested as crude clonal phage supernatant) [Phage-1977] | 0.0721 | 1.89 |  |  |  |
| PERWCIPVWMCESG (Peptide-180 library clone, tested as clonal phage supernatant) [Phage-2014] |  |  |  |  | Anti-PSMA Fab (SEQ ID NOs: 19, 20) signal [5]: 1.83; Anti-PSMA Fab signal in the presence of PSMA [6]: 0.0731 |
| FDKWCIPEWMCAVL (tested as crude clonal phage supernatant) [Phage-1973] | 0.0682 | 1.9 |  |  |  |
| VEKWCKPTWMCEMV (tested as crude clonal phage supernatant) [Phage-1969] | 0.0976 | 1.9 |  |  |  |
| EVKWCTPAWMCEGF (cysteine pairing not given here; also: displayed as fusion to phage pIII, Peptide-180 library clone) [Phage-2001] |  |  | 0.0605 | 1.85 |  |
| VMNWCTPVWMCQGF (tested as crude clonal phage supernatant) [Phage-1971] | 0.115 | 1.9 |  |  |  |
| LEKWCIPAWMCEVF (Peptide-180 library clone, tested as clonal phage supernatant) [Phage-2013] |  |  |  |  | Anti-PSMA Fab (SEQ ID NOs: 19, 20) signal [5]: 1.84; Anti-PSMA Fab signal in the presence of PSMA [6]: 0.0967 |
| DVKMCIPAWMCSFD (tested as crude clonal phage supernatant) [Phage-1967] | 0.0712 | 1.91 |  |  |  |
| LEKLCIPSWMCEGM (cysteine pairing not given here; also: displayed as fusion to phage pIII, Peptide-180 library clone) [Phage-2002] |  |  | 0.0942 | 1.85 |  |
| IPKWCTPAWMCESM (cysteine pairing not given here; also: displayed as fusion to phage pIII, Peptide-180 library clone) [Phage-1999] |  |  | 0.0609 | 1.86 |  |
| LQKLCIPEWMCLNM (cysteine pairing not given here; also: fused to phage pIII, pIII sequence and linker not given here, Peptide-180 library clone) [Phage-2010] |  |  | 0.0655 | 1.84 |  |
| HPKWCTPAWMCVML (cysteine pairing not given here; also: fused to phage pIII, pIII sequence and linker not given here, Peptide-180 library clone) [Phage-2008] |  |  | 0.0691 | 1.85 |  |
| TMHWCIPQWMCETG (tested as crude clonal phage supernatant) [Phage-1976] | 0.25 | 1.89 |  |  |  |
| LDKWCIPPWMCYSI (tested as crude clonal phage supernatant) [Phage-1980] | 0.0602 | 1.89 |  |  |  |

| Binder | Anti-PSMA Fab signal in the presence of PSMA [1] | Anti-PSMA Fab (SEQ ID NOs: 19, 20) signal [2] | Phage binding ELISA, Anti-PSMA Fab signal in the presence of PSMA [3] | Phage binding ELISA, Anti-PSMA Fab signal [4] | further results |
| --- | --- | --- | --- | --- | --- |
| LPHWCTPLWMCEGF (cysteine pairing not given here; also: fused to phage pIII, pIII sequence and linker not given here, Peptide-180 library clone) [Phage-2006] |  |  | 0.0658 | 1.85 |  |
| LPKWCTPEWMCIGF (tested as crude clonal phage supernatant) [Phage-1979] | 0.113 | 1.89 |  |  |  |
| GEKWCIPPWMCITN (Peptide-180 library clone, tested as clonal phage supernatant) [Phage-2012] |  |  |  |  | Anti-PSMA Fab (SEQ ID NOs: 19, 20) signal [5]: 1.84; Anti-PSMA Fab signal in the presence of PSMA [6]: 0.0697 |
| MVKWCKPAWMCDVI [Phage-1965] |  |  |  |  | Phage binding ELISA, Anti-PSMA Fab (SEQ ID NOs: 19, 20) signal [7]: 1.91; Phage binding ELISA, Anti-PSMA Fab signal in the presence of PSMA [8]: 0.078 |
| PWHWCIPEWMCAEY (tested as crude clonal phage supernatant) [Phage-1972] | 0.083 | 1.9 |  |  |  |
| LEMWCVPAWMCSGF [Phage-1964] |  |  |  |  | Phage binding ELISA, Anti-PSMA Fab (SEQ ID NOs: 19, 20) signal [7]: 1.91; Phage binding ELISA, Anti-PSMA Fab signal in the presence of PSMA [8]: 0.0771 |
| VTKWCIPEWMCEYI (cysteine pairing not given here; also: fused to phage pIII, pIII sequence and linker not given here, Peptide-180 library clone) [Phage-2005] |  |  | 0.0658 | 1.85 |  |
| SERWCIPTWMCQET (tested as crude clonal phage supernatant) [Phage-1978] | 0.0819 | 1.89 |  |  |  |
| EFKWCTPSWMCAHL (tested as crude clonal phage supernatant) [Phage-1970] | 0.128 | 1.9 |  |  |  |
| NFHLCTPQWMCTGF (cysteine pairing not given here; also: displayed as fusion to phage pIII, Peptide-180 library clone) [Phage-1997] |  |  | 0.0973 | 1.86 |  |
| YIKWCTPSWMCEAS (tested as crude clonal phage supernatant) [Phage-1968] | 0.113 | 1.9 |  |  |  |
| FEKWCVPIWMCRDS (cysteine pairing not given here; also: displayed as fusion to phage pIII, Peptide-180 library clone) [Phage-2003] |  |  | 0.161 | 1.85 |  |
| DTHMCRPLWMCTGL (cysteine pairing not given here; also: fused to phage pIII, pIII sequence and linker not given here, Peptide-180 library clone) [Phage-2011] |  |  | 0.0778 | 1.84 |  |
| QDMWCIPPWMCWAQ (cysteine pairing not given here; also: fused to phage pIII, pIII sequence and linker not given here, Peptide-180 library clone) [Phage-2007] |  |  | 0.126 | 1.85 |  |
| HEMWCRPAWMCDGF (cysteine pairing not given here; also: displayed as fusion to phage pIII, Peptide-180 library clone) [Phage-2000] |  |  | 0.0635 | 1.85 |  |
| FDNWCKPSWMCAGL (tested as crude clonal phage supernatant) [Phage-1975] | 0.0863 | 1.89 |  |  |  |
| WDKWCRPAWMCEST (tested as crude clonal phage supernatant) [Phage-1966] | 0.0851 | 1.91 |  |  |  |
